Source: patent US20250074988A1 (SHANGHAI HUAOTA BIOPHARMACEUTICAL, published 2025)

T1: Rabbit PD-L1 (rabbit, UniProt G1SUI3 19-238)
T1 sequence: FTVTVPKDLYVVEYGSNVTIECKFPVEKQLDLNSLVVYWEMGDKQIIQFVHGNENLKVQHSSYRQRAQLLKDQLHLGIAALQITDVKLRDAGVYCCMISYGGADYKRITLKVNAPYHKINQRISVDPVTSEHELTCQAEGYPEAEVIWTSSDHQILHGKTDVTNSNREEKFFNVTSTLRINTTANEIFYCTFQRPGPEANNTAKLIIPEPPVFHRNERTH

B1: humanized anti-PD-L1 antibody No. 900760 (antibody, V domains shown)
VH: QVQLVQSGAEVKKPGASVKVSCKASGYTFTDYYINWVRQAPGQRLEWIGWIYLGSGNAKYSQKFQGRVTITVDTSASTAYMELSSLRSEDTAVYYCARSVGTYWYFDVWGQGTTVTVSS
VL: QIQLTQSPSSLSASVGDRVTMTCSASSSVSYMHWYQQKPGKAPKPWIYDTSNVASGFPARFSGSGSGTDYTLTISSMQPEDFATYYCHQRSSYPWTFGQGTKLEIK
B2: 900245Ab-H2L2 (antibody, human IgG1, kappa, L234A L235A, V domains shown)
VH: QIQLVQSGAEVKKPGASVKVSCKASGYTFTDYYINWVRQAPGQRLEWIGWIYLGSGNAKYNEKFKGRATLTVDTSASTAYMELSSLRSEDTAVYYCARCVGTYWYFDVWGQGTTVTVSS
VL: DIQLTQSPSSLSASVGDRVTITCSASSSVSYMHWYQQKPGKAPKPWIYDTSNVQSGFPSRFSGSGSGTDYTLTISSLQPEDFATYYCHQRSSYPWTFGQGTKLEIKR
notes: Humanized; huVH2 + huVL2 on human IgG1 / Ig kappa constants
B3: 900245Ab-H4L1 (antibody, human IgG1, kappa, L234A L235A, V domains shown)
VH: QVQLVQSGAEVKKPGASVKVSCKASGYTFTDYYINWVRQAPGQRLEWIGWIYLGSGNAKYNEKFKGRVTITVDTSASTAYMELSSLRSEDTAVYYCARSVGTYWYFDVWGQGTTVTVSS
VL: QIQLTQSPSSLSASVGDRVTMTCSASSSVSYMHWYQQKPGKAPKPWIYDTSNVASGFPARFSGSGSGTDYTLTISSMQPEDFATYYCHQRSSYPWTFGQGTKLEIKR
notes: Humanized; huVH4 + huVL1 on human IgG1 / Ig kappa constants
B4: 900245Ab-H4L2 (antibody, human IgG1, kappa, L234A L235A, V domains shown)
VH: QVQLVQSGAEVKKPGASVKVSCKASGYTFTDYYINWVRQAPGQRLEWIGWIYLGSGNAKYNEKFKGRVTITVDTSASTAYMELSSLRSEDTAVYYCARSVGTYWYFDVWGQGTTVTVSS
VL: DIQLTQSPSSLSASVGDRVTITCSASSSVSYMHWYQQKPGKAPKPWIYDTSNVQSGFPSRFSGSGSGTDYTLTISSLQPEDFATYYCHQRSSYPWTFGQGTKLEIKR
notes: Humanized; huVH4 + huVL2 on human IgG1 / Ig kappa constants
B5: 900245Ab-H2L1 (antibody, human IgG1, kappa, L234A L235A, V domains shown)
VH: QIQLVQSGAEVKKPGASVKVSCKASGYTFTDYYINWVRQAPGQRLEWIGWIYLGSGNAKYNEKFKGRATLTVDTSASTAYMELSSLRSEDTAVYYCARCVGTYWYFDVWGQGTTVTVSS
VL: QIQLTQSPSSLSASVGDRVTMTCSASSSVSYMHWYQQKPGKAPKPWIYDTSNVASGFPARFSGSGSGTDYTLTISSMQPEDFATYYCHQRSSYPWTFGQGTKLEIKR
notes: Humanized; huVH2 + huVL1 on human IgG1 / Ig kappa constants
B6: 900245Ab-H4L3 (antibody, human IgG1, kappa, L234A L235A, V domains shown)
VH: QVQLVQSGAEVKKPGASVKVSCKASGYTFTDYYINWVRQAPGQRLEWIGWIYLGSGNAKYNEKFKGRVTITVDTSASTAYMELSSLRSEDTAVYYCARSVGTYWYFDVWGQGTTVTVSS
VL: DIQLTQSPSSLSASVGDRVTITCSASSSVSYMHWYQQKPGKAPKLLIYDTSSLQSGVPSRFSGSGSGTDYTLTISSLQPEDFATYYCHQRSSYPWTFGQGTKLEIKR
notes: Humanized; huVH4 + huVL3 on human IgG1 / Ig kappa constants
B7: 900245Ab-H3L2 (antibody, human IgG1, kappa, L234A L235A, V domains shown)
VH: QIQLVQSGAEVKKPGASVKVSCKASGYTFTDYYINWVRQAPGQRLEWIGWIYLGSGNAKYSQKFQGRATLTVDTSASTAYMELSSLRSEDTAVYYCARCVGTYWYFDVWGQGTTVTVSS
VL: DIQLTQSPSSLSASVGDRVTITCSASSSVSYMHWYQQKPGKAPKPWIYDTSNVQSGFPSRFSGSGSGTDYTLTISSLQPEDFATYYCHQRSSYPWTFGQGTKLEIKR
notes: Humanized; huVH3 + huVL2 on human IgG1 / Ig kappa constants
B8: 900245Ab-H3L1 (antibody, human IgG1, kappa, L234A L235A, V domains shown)
VH: QIQLVQSGAEVKKPGASVKVSCKASGYTFTDYYINWVRQAPGQRLEWIGWIYLGSGNAKYSQKFQGRATLTVDTSASTAYMELSSLRSEDTAVYYCARCVGTYWYFDVWGQGTTVTVSS
VL: QIQLTQSPSSLSASVGDRVTMTCSASSSVSYMHWYQQKPGKAPKPWIYDTSNVASGFPARFSGSGSGTDYTLTISSMQPEDFATYYCHQRSSYPWTFGQGTKLEIKR
notes: Humanized; huVH3 + huVL1 on human IgG1 / Ig kappa constants
B9: 900245Ab-H5L1 (antibody, human IgG1, kappa, L234A L235A, V domains shown)
VH: QVQLVQSGAEVKKPGASVKVSCKASGYTFTDYYINWVRQAPGQRLEWIGWIYLGSGNAKYSQKFQGRVTITVDTSASTAYMELSSLRSEDTAVYYCARSVGTYWYFDVWGQGTTVTVSS
VL: QIQLTQSPSSLSASVGDRVTMTCSASSSVSYMHWYQQKPGKAPKPWIYDTSNVASGFPARFSGSGSGTDYTLTISSMQPEDFATYYCHQRSSYPWTFGQGTKLEIKR
notes: Humanized; huVH5 + huVL1 on human IgG1 / Ig kappa constants, screening batch from ExpiCHO-s cells; also called CoAD1445
B10: 900245Ab-H1L1 (antibody, human IgG1, kappa, L234A L235A, V domains shown)
VH: QIQLVQSGAEVKKPGASVKISCKASGYTFTDYYINWVRQAPGQRLEWIGWIYLGSGNAKYNEKFKGKATLTVDTSASTAYMELSSLRSEDTAVYFCARCVGTYWYFDVWGQGTTVTVSS
VL: QIQLTQSPSSLSASVGDRVTMTCSASSSVSYMHWYQQKPGKAPKPWIYDTSNVASGFPARFSGSGSGTDYTLTISSMQPEDFATYYCHQRSSYPWTFGQGTKLEIKR
notes: Humanized
B11: 900245Ab-H5L2 (antibody, human IgG1, kappa, L234A L235A, V domains shown)
VH: QVQLVQSGAEVKKPGASVKVSCKASGYTFTDYYINWVRQAPGQRLEWIGWIYLGSGNAKYSQKFQGRVTITVDTSASTAYMELSSLRSEDTAVYYCARSVGTYWYFDVWGQGTTVTVSS
VL: DIQLTQSPSSLSASVGDRVTITCSASSSVSYMHWYQQKPGKAPKPWIYDTSNVQSGFPSRFSGSGSGTDYTLTISSLQPEDFATYYCHQRSSYPWTFGQGTKLEIKR
notes: Humanized; huVH5 + huVL2 on human IgG1 / Ig kappa constants
B12: 900245Ab-H3L3 (antibody, human IgG1, kappa, L234A L235A, V domains shown)
VH: QIQLVQSGAEVKKPGASVKVSCKASGYTFTDYYINWVRQAPGQRLEWIGWIYLGSGNAKYSQKFQGRATLTVDTSASTAYMELSSLRSEDTAVYYCARCVGTYWYFDVWGQGTTVTVSS
VL: DIQLTQSPSSLSASVGDRVTITCSASSSVSYMHWYQQKPGKAPKLLIYDTSSLQSGVPSRFSGSGSGTDYTLTISSLQPEDFATYYCHQRSSYPWTFGQGTKLEIKR
notes: Humanized; huVH3 + huVL3 on human IgG1 / Ig kappa constants
B13: 900245Ab-H5L3 (antibody, human IgG1, kappa, L234A L235A, V domains shown)
VH: QVQLVQSGAEVKKPGASVKVSCKASGYTFTDYYINWVRQAPGQRLEWIGWIYLGSGNAKYSQKFQGRVTITVDTSASTAYMELSSLRSEDTAVYYCARSVGTYWYFDVWGQGTTVTVSS
VL: DIQLTQSPSSLSASVGDRVTITCSASSSVSYMHWYQQKPGKAPKLLIYDTSSLQSGVPSRFSGSGSGTDYTLTISSLQPEDFATYYCHQRSSYPWTFGQGTKLEIKR
notes: Humanized; huVH5 + huVL3 on human IgG1 / Ig kappa constants

Tests used:
[1] = molecular target: T2, human PD-L1-moFc recombinant protein (human); experiment: flow cytometry, blocking of PD-L1-moFc binding to CHO-K1-huPD-1 cells
T2 construct: also called free PD-L1
T2 sequence (chain, as listed by the source limits assumed): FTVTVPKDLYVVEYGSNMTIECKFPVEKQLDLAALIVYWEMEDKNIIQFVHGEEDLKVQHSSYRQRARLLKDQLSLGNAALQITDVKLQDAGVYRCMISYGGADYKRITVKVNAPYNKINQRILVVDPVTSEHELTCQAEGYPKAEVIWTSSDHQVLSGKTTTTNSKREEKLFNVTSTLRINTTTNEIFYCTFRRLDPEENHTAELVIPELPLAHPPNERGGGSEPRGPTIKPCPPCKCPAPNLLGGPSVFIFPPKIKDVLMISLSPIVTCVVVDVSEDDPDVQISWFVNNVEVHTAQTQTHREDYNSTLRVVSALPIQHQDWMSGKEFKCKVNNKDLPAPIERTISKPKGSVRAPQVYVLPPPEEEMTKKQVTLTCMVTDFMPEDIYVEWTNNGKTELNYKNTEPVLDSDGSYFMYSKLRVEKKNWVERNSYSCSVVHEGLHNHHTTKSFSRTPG
Procedure: The antibodies to be tested were diluted with 3-fold gradient, added at 20 μL/well into the 96-well plate with the antigen added, mixed well, and incubated at room temperature for 15 min. CHO-K1-huPD-1 cells overexpressing human PD-1 were added at 2×10⁴/well into the 96-well plate pre-incubated with antigen-antibody, mixed well, and incubated at room temperature for 15 min. The mixture was centrifuged at 300 g for 5 min, the supernatant was removed, and the cells were washed twice with FACS buffer. Anti-moFc-Alexa 488 (Item No.: 115-545-071, Jackson) secondary antibodies were diluted at 1:300, added, mixed well, and incubated at room temperature for 15 min. The cells were washed three times and measured on instrument for the fluorescence intensity on their surfaces.

[2] = molecular target: T3, human PD-L1 on CHO-K1-huPD-L1 cells (human, UniProt Q9NZQ7 19-290); experiment: cell-based or functional assay
T3 sequence (Q9NZQ7 19-290): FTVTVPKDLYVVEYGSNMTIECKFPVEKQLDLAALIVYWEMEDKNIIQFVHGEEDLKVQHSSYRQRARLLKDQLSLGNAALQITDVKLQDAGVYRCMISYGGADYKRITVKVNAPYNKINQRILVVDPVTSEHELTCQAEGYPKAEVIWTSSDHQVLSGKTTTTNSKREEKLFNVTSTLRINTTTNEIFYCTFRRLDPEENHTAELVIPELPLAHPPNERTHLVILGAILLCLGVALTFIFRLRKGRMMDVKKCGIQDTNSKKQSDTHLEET

[3] = molecular target: T3, human PD-L1 on CHO-K1-huPD-L1 cells; experiment: flow cytometry on CHO-K1-huPD-L1 cells; humanized antibody 900760
Procedure: CHO-K1-huPD-L1 cells overexpressing human PD-L1 were plated in a 96-well plate at 2×10⁴/well, and the 3-fold serial gradient dilutions of the samples to be tested were added at 20 μl/well, and co-incubated with the cells at room temperature for 30 min. The cells were washed by centrifugation to remove unbound antibodies, and 20 μl of R-Phycoerythrin AffiniPure Goat Anti-Human IgG, Fcγ Fragment Specific (Item No.: 109-115-098, Jackson ImmunoResearch; diluted with 1% (w/v) BSA-PBS at 1:200) fluorescent secondary antibodies were added to each well, and incubated for 15 min. The cells were then washed twice, resuspended in 100 μl of 1% (w/v) BSA-PBS, and detected for their fluorescence intensity at 585 nm by flow cytometry (BD, FACS Cantoll) under 488 nm excitation.

Cynomolgus PD-L1 = Cynomolgus PD-L1 (cynomolgus); experiment: SPR, Biacore 8K, antibody captured as ligand, PD-L1 analyte, 1:1 model
[4] = molecular target: T4, recombinant human PD-L1 protein (Item No. 10084-H08H, Sino Biological) (human, UniProt Q9NZQ7 19-238); experiment: as above
T4 construct: Bought protein; also called huPD-L1; human PD-L1 antigen
T4 sequence (Q9NZQ7 19-238 limits assumed): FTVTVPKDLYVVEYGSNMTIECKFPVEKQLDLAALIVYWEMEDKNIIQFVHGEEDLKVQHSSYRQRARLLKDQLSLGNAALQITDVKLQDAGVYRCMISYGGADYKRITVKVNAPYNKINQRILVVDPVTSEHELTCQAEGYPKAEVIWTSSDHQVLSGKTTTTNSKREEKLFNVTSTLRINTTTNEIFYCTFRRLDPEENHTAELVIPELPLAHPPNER

Rabbit PD-L1 = molecular target: T1, Rabbit PD-L1; experiment: as above
[5] = molecular target: T4, recombinant human PD-L1 protein (Item …); experiment: ELISA, humanization screening
[6] = molecular target: T4, recombinant human PD-L1 protein (Item …); experiment: SPR, humanization screening

| Binder | EC50 [5] | Kd [6] | further results |
| --- | --- | --- | --- |
| B1 |  |  | IC50 [1]: 2.27 µg/mL; EC50, T cell activation (NFAT-luciferase RLU, Jurkat-NFAT-PD-1-5B8 effector cells with CHO-K1-OS8-PD-L1-8D6 target cells) [2]: 0.416 µg/mL; EC50 [3]: 0.075 µg/mL; Kd (Cynomolgus PD-L1): 0.695 nM; koff (Cynomolgus PD-L1): 0.000138 s⁻¹; kon (Cynomolgus PD-L1): 198000 M⁻¹ s⁻¹; Kd [4]: 0.459 nM; koff [4]: 0.000158 s⁻¹; kon [4]: 345000 M⁻¹ s⁻¹; Kd (Rabbit PD-L1): 14 nM; koff (Rabbit PD-L1): 0.00235 s⁻¹; kon (Rabbit PD-L1): 167000 M⁻¹ s⁻¹ |
| B2 | 0.514 µg/mL | 0.816 nM |  |
| B3 | 0.589 µg/mL | 0.726 nM |  |
| B4 | 1.31 µg/mL | 1.97 nM |  |
| B5 | 0.385 µg/mL | 0.639 nM |  |
| B6 | ~1520 µg/mL | 43.7 nM |  |
| B7 | 0.787 µg/mL | 0.764 nM |  |
| B8 | 0.381 µg/mL | 0.576 nM |  |
| B9 | 0.502 µg/mL | 0.645 nM |  |
| B10 | 0.361 µg/mL | 0.596 nM |  |
| B11 | 0.991 µg/mL | 1.67 nM |  |
| B12 | 8.7 µg/mL | 10.4 nM |  |
| B13 | ~1410 µg/mL | 30.9 nM |  |
